Assay results: paper doi:10.1101/330266 (bioRxiv, 2019)

Biological target: the molecule itself
Test: thioflavin T

Binding result, binds:
Ac-DNIKHIPGGGSVQIVYK-NH2 [R2R3-V300I peptide fragment]
Ac-DNIKHVPGGGNVQIVYK-NH2 [R2R3-S305N peptide fragment]
Ac-DNIKHVLGGGSVQIVYK-NH2 [R2R3-P301L peptide fragment]
Ac-DNIKHVPGVGSVQIVYK-NH2 [R2R3-G303V peptide fragment]
Ac-DNIKHVSGGGSVQIVYK-NH2 [R2R3-P301S peptide fragment]
Ac-VQIVYK-NH2 [306VQIVYK311 hexapeptide]
